In PMC7876045:

Molecular target: RNAP sigma70 holoenzyme (Esigma70) (Escherichia coli) (UniProt P0A7Z4+P0A8V2+P0A8T7+P0A800+P00579)
Assay: KMnO4 footprinting
Conditions: 40 mM Tris-HCl pH 8.0, 1 mM DTT, 0.1 mg/ml BSA, 10 mM MgCl2, 50 mM KCl, 37 C (transcription buffer); 150 nM Esigma70, sample mixed 1:1 with 20 mM KMnO4 for …

ACCTCGGTATGCCTTGTGACTGGCTTGACAAGCTTTTCCTCAGCTCCGTAAACTCCTTTCAGTGGGAAATTGTGGGGCAAAGTGGGAATAAGGGGTGAGGCTGGCATGTTCCGGGGAGCAA (double strand) [mraZ promoter (G1p) permanganate template]
binding: binds

ATCGCCAGCGCGCGATGATGTTCCGAAGACTATAAGGCATGTTATAGTCTGGATTATATTGAGGCAAGTCACCCTCCCATTTATTCAGAGTAAAAGTCTATTCTGTGATAAATGGC (double strand) [minC promoter (G1d) permanganate template]
binding: binds
